Data on three molecules can be found in patent US20220143185A1, “ORALLY ACTIVE SMALL MOLECULE INHIBITOR OF PAI-1” (Northwestern University, priority 2019, published 2022).

For data set [1], the target named is T1, PCSK9 (Homo sapiens, UniProt Q8NBP7).
Data set [2] concerns the target T1, PCSK9. Briefly: Plasma PCSK9 and PAI-1 levels in hypercholesterolemic patients treated with PCSK9 monoclonal antibodies. Format: in vivo. Conditions: before vs during treatment; for plasma PAI-1 levels: n=28, p=0.0029. More on the design: from tissue; host or cells: plasma of hypercholesterolemic patients. The method, then:
Plasma samples from hypercholesterolemic patients were obtained from the OHSU Center for Preventive Cardiology Registry and Biorepository, approved by OHSU Institutional Review Board (17329).
Total cholesterol was quantified in the murine plasma using an enzymatic determination (Pointe Scientific, Cat #C7510). The lipoprotein profile of the murine plasma samples was assessed running a fast-phase liquid chromatography (FPLC), in brief 100 μL of plasma (from one animal or a pool of several samples of the same conditions) were loaded to a Superose 6 column (GE HealthCare, Cat #29-0915-96) at a flow rate of 0.5 mL/min in running buffer (0.15M NaCl, 0.01M Na2HPO4 and 1 mM EDTA). Fractions were collected every minute for 41 minutes and analyzed for cholesterol concentrations as described above. Murine plasma PCSK9 levels were determined using an ELISA kit (MBL International, Cat #CY-80781). Murine PAI-1 levels were quantified using an ELISA kit (Molecular Innovations, Cat #MPAIKT-TOT). Murine PAI-1 activity levels were quantified by ELISA (Molecular Innovations, Cat #MPAIKT). Human PAI-1 levels were quantified by ELISA (Molecular Innovations, Cat #HPAIKT-TOT).
PAI-1 and PCSK9 levels were also quantified in plasma samples obtained from a human cohort with and without heart failure with preserved ejection fraction (HFpEF). There was again a positive correlation between PAI-1 and PCSK9 levels in these patients, similar to that in mice and in the Amish kindred (FIG. 19D, p<0.0001; R=0.351).

With “recombinant human low molecular weight urokinase”, the “proteolytic degradation of PCSK9 in vitro (Western blot for PCSK9, silver stain)” value in data set [1] was “efficiently promoted the proteolytic degradation of recombinant human PCSK9”. In the case of alirocumab, in data set [2], the “total plasma PCSK9 levels” value is “large increase” and the “plasma PAI-1 levels” value is reported as “significant reduction”.

B1: evolocumab (antibody, chains of the INN, looked up, V domains shown)
VH: EVQLVQSGAEVKKPGASVKVSCKASGYTLTSYGISWVRQAPGQGLEWMGWVSFYNGNTNYAQKLQGRGTMTTDPSTSTAYMELRSLRSDDTAVYYCARGYGMDVWGQGTTVTVSS
VL: ESALTQPASVSGSPGQSITISCTGTSSDVGGYNSVSWYQQHPGKAPKLMIYEVSNRPSGVSNRFSGSKSGNTASLTISGLQAEDEADYYCNSYTSTSMVFGGGTKLTVL
For B1, in data set [2], the “total plasma PCSK9 levels” value is listed as “large increase” and the “plasma PAI-1 levels” value is “significant reduction”.
